# Assay results as given in patent US20090068637A1.
# Experiments:
# [1] = molecular target: non-H5 viruses (14 strains; H1~H13, Chicken NDV); experiment: cell-based or functional assay
# [2] = molecular target: H5 virus strains (thirty-four strains of H5N1 viruses); experiment: cell-based or functional assay
# [3] = molecular target: HA of H5N1 virus strain B4 (avian influenza virus H5N1); experiment: cell-based or functional assay
# [4] = molecular target: HA of virus strain DK/IDN/MS/04 (avian influenza virus); experiment: cell-based or functional assay
# [5] = molecular target: HA of H5N1 virus strain E2 (avian influenza virus H5N1); experiment: cell-based or functional assay
# [6] = molecular target: HA of H5N1 virus strain C2 (avian influenza virus H5N1); experiment: cell-based or functional assay
# [7] = molecular target: HA of H5N1 virus strain F3 (avian influenza virus H5N1); experiment: cell-based or functional assay
# [8] = molecular target: HA of H5N1 virus strain B2 (avian influenza virus H5N1); experiment: cell-based or functional assay
# [9] = molecular target: HA of H5N1 virus strain B1 (avian influenza virus H5N1); experiment: cell-based or functional assay
# [10] = molecular target: HA of H5N1 virus strain B5 (avian influenza virus H5N1); experiment: cell-based or functional assay
# [11] = molecular target: HA of H5N1 virus strain A1 (avian influenza virus H5N1); experiment: cell-based or functional assay
# [12] = molecular target: HA of H5N1 virus strain H1 (avian influenza virus H5N1); experiment: cell-based or functional assay
# [13] = molecular target: HA of H5N1 virus strain B8 (avian influenza virus H5N1); experiment: cell-based or functional assay
# [14] = molecular target: HA of H5N1 virus strain A3 (avian influenza virus H5N1); experiment: cell-based or functional assay
# [15] = molecular target: HA of H5N1 virus strain B3 (avian influenza virus H5N1); experiment: cell-based or functional assay
# [16] = molecular target: HA of H5N1 virus strain B6 (avian influenza virus H5N1); experiment: cell-based or functional assay
# [17] = molecular target: HA of H5N1 virus strain A6 (avian influenza virus H5N1); experiment: cell-based or functional assay
# [18] = molecular target: HA of virus strain CK/HK/213/03 (avian influenza virus); experiment: cell-based or functional assay
# [19] = molecular target: HA of virus strain BhGs/QH/15/05 (avian influenza virus); experiment: cell-based or functional assay
# [20] = molecular target: HA of H5N1 virus strain D2 (avian influenza virus H5N1); experiment: cell-based or functional assay
# [21] = molecular target: HA of virus strain CP Heron/HK/18/05 (avian influenza virus); experiment: cell-based or functional assay
# [22] = molecular target: HA of H5N1 virus strain B7 (avian influenza virus H5N1); experiment: cell-based or functional assay
# [23] = molecular target: HA of H5N1 virus strain F2 (avian influenza virus H5N1); experiment: cell-based or functional assay
# [24] = molecular target: HA of H5N1 virus strain E1 (avian influenza virus H5N1); experiment: cell-based or functional assay
# [25] = molecular target: HA of H5N1 virus strain A7 (avian influenza virus H5N1); experiment: cell-based or functional assay
# [26] = molecular target: HA of virus strain Oriental Magpie Robin/HK/366/2006 (avian influenza virus); experiment: cell-based or functional assay
# [27] = molecular target: HA of H5N1 virus strain A8 (avian influenza virus H5N1); experiment: cell-based or functional assay
# [28] = molecular target: HA of virus strain CK/IDN/2A/04 (avian influenza virus); experiment: cell-based or functional assay
# [29] = molecular target: HA of H5N1 virus strain C3 (avian influenza virus H5N1); experiment: cell-based or functional assay
# [30] = molecular target: HA of H5N1 virus strain A5 (avian influenza virus H5N1); experiment: cell-based or functional assay
# [31] = molecular target: HA of H5N1 virus strain H2 (avian influenza virus H5N1); experiment: cell-based or functional assay
# [32] = molecular target: HA of H5N1 virus strain A2 (avian influenza virus H5N1); experiment: cell-based or functional assay
# [33] = molecular target: HA of H5N1 virus strain D1 (avian influenza virus H5N1); experiment: cell-based or functional assay
# [34] = molecular target: HA of H5N1 virus strain G1 (avian influenza virus H5N1); experiment: cell-based or functional assay
# [35] = molecular target: hemagglutinin of subtype H5 avian influenza virus (strain not stated) (avian influenza virus subtype H5)
# [36] = molecular target: HA of H5N1 virus strain C1 (avian influenza virus H5N1); experiment: cell-based or functional assay
# [37] = molecular target: HA of H5N1 virus strain A4 (avian influenza virus H5N1); experiment: cell-based or functional assay
# [38] = molecular target: 7aa peptide 8H5A (HGMLPVY); experiment: phage ELISA: mAb coated at 5 ug/ml, phage 1:1000, anti-M13/HRP
# [39] = molecular target: 7aa peptide 8H5E (NSGPWLT); experiment: as above
binder,measurement,setting,value
"monoclonal antibody 2F2 (antibody, V domains shown) VH: QVQLKESGPGLVAPSQRLSITCTVSGFSLTGYGVHWIRQSPGKGLEWLGMIWAEGRTDYNSVLKSRLSINKDNSRSQVFLEMNSLQTDDTARYYCAREVITTEAWYFDVWGQGTSVTES VL: DIVMTQSPATLSVTPGDRVSLSCRASQSISDYLYWYQQKSHESPRLLIKYASQSISGIPSRFSGSGSGSDFTLTINSVEPEDVGMYYCQNGHTFPLTFGAGTKLEIKR",HI assay: positive number/total virus number (of 14 strains),[1],0
same,HI assay: positive number/total virus number (of 34 strains),[2],28
10F7 single chain antibody (scFv) scFv: QVQLQQPGAELVKPGASVKLSCKASGYTFTSYWMHWVKQRPGQGLEWIGEIDPSDSYTNYNQKFKGKATLTVDKSSSTAYMQLSSLTSEDSAVYYCARGGTGDFHYAMDYWGQGTSVTVSSGGGGSDILMTQSPSSMSVSLGDTVSITCHASQGISSNIGWLQQKPGKSFKGLIYHGTNLEDGVPSRFSGSGSGADYSLTISSLESEDFADYYCVQYVQFPYTFGGGTKLEIKR,HI titer (n) (n (dilution 2^n)),[3],> 8
same,neutralization test: dilution of 10F7 scFv (fold dilution),[4],16
same,HI titer (n) (n (dilution 2^n)),[5],0
same,HI titer (n) (n (dilution 2^n)),[6],2
same,HI titer (n) (n (dilution 2^n)),[7],0
same,HI titer (n) (n (dilution 2^n)),[8],0
same,HI titer (n) (n (dilution 2^n)),[9],7
same,HI titer (n) (n (dilution 2^n)),[10],0
same,HI titer (n) (n (dilution 2^n)),[11],> 8
same,HI titer (n) (n (dilution 2^n)),[12],< 1
same,HI titer (n) (n (dilution 2^n)),[13],7
same,HI titer (n) (n (dilution 2^n)),[14],> 8
same,HI titer (n) (n (dilution 2^n)),[15],> 8
same,HI titer (n) (n (dilution 2^n)),[16],7
same,HI titer (n) (n (dilution 2^n)),[17],7.5
same,neutralization test: dilution of 10F7 scFv (fold dilution),[18],< 1
same,neutralization test: dilution of 10F7 scFv (fold dilution),[19],16
same,HI titer (n) (n (dilution 2^n)),[20],2.5
same,neutralization test: dilution of 10F7 scFv (fold dilution),[21],8
same,HI titer (n) (n (dilution 2^n)),[22],7
same,HI titer (n) (n (dilution 2^n)),[23],0
same,HI titer (n) (n (dilution 2^n)),[24],0
same,HI titer (n) (n (dilution 2^n)),[25],6.5
same,neutralization test: dilution of 10F7 scFv (fold dilution),[26],< 1
same,HI titer (n) (n (dilution 2^n)),[27],6
same,neutralization test: dilution of 10F7 scFv (fold dilution),[28],32
same,HI titer (n) (n (dilution 2^n)),[29],1
same,HI titer (n) (n (dilution 2^n)),[30],> 8
same,HI titer (n) (n (dilution 2^n)),[31],0
same,HI titer (n) (n (dilution 2^n)),[32],> 8
same,HI titer (n) (n (dilution 2^n)),[33],2.5
same,HI titer (n) (n (dilution 2^n)),[34],0
8H5 single chain antibody (scFv) scFv: QVQLQQSGAELMKPGASVKISCKATGYTFSNYWIEWIKQRPGHGLEWIGEILPGSDRTNYNGKFKGKATFTADTSSNTAHMQLSSLTSEDSAVYYCANRYDGYYFGLDYWGQGTSVAVSSAGGGGSEIVLTQSPAIMSASLGEKVTMSCRASSSVNFVYWYQQRSDASPKLLIYYSSNLAPGVPPRFSGSGSGNSYSLTISGLEGEDAATYYCQHFTSSPYTFGGGTNLEIKR,HI titer (n) (n (dilution 2^n)),[3],5
same,HI titer (n) (n (dilution 2^n)),[5],0
same,HI titer (n) (n (dilution 2^n)),[6],1
same,HI titer (n) (n (dilution 2^n)),[7],0
same,HI titer (n) (n (dilution 2^n)),[8],0
same,HI titer (n) (n (dilution 2^n)),[9],4
same,HI titer (n) (n (dilution 2^n)),[10],0
same,HI titer (n) (n (dilution 2^n)),[11],3.5
same,HI titer (n) (n (dilution 2^n)),[12],0
same,HI titer (n) (n (dilution 2^n)),[13],3
same,HI titer (n) (n (dilution 2^n)),[14],3.5
same,HI titer (n) (n (dilution 2^n)),[15],5
same,HI titer (n) (n (dilution 2^n)),[16],3.5
same,HI titer (n) (n (dilution 2^n)),[17],3
same,HI titer (n) (n (dilution 2^n)),[20],2
same,HI titer (n) (n (dilution 2^n)),[22],4
same,HI titer (n) (n (dilution 2^n)),[23],0
same,HI titer (n) (n (dilution 2^n)),[24],0
same,HI titer (n) (n (dilution 2^n)),[25],3
same,HI titer (n) (n (dilution 2^n)),[27],2.5
same,HI titer (n) (n (dilution 2^n)),[29],0
same,HI titer (n) (n (dilution 2^n)),[30],4
same,HI titer (n) (n (dilution 2^n)),[31],0
same,HI titer (n) (n (dilution 2^n)),[32],4.5
same,HI titer (n) (n (dilution 2^n)),[33],2.5
same,HI titer (n) (n (dilution 2^n)),[34],0
same,average value of the testing wells (ELISA reading),[35],0.597
"4D1 chimeric antibody (antibody, V domains shown) VH: QVQLQQPGAELVKPGASVNLSCKASGYTFTSYWMHWVKQRPGQGLEWIGEIDPSDSFTTYNQNFKDRATLTVDKSSSTAYMQLRSLTSEDSAVYYCARGGPGDFRYAMDYWGQGTSVTVSS VL: DILMTQSPSSMSVSLGDTVSITCHASQGISSNIGWLQQKPGKSFKGLIYHGTNLEDGVPSRFSGSGSGADYSLTISSLESEDFADYYCVQYVQFPYTFGGGTKLEIKR",HI test result,[3],5.5 n
same,HI test result,[5],7.5 n
same,HI test result,[6],6 n
same,HI test result,[7],1 n
same,HI test result,[9],> 8 n
same,HI test result,[36],7.5 n
same,HI test result,[11],5 n
same,HI test result,[12],1 n
same,HI test result,[13],4 n
same,HI test result,[14],5.5 n
same,HI test result,[16],6.5 n
same,HI test result,[17],4.5 n
same,HI test result,[22],7 n
same,HI test result,[37],6 n
same,HI test result,[23],1 n
same,HI test result,[24],5.5 n
same,HI test result,[25],4 n
same,HI test result,[27],5.5 n
same,HI test result,[29],4 n
same,HI test result,[31],1 n
same,HI test result,[32],5.5 n
same,HI test result,[33],5 n
same,HI test result,[34],1 n
"10F7 chimeric antibody (antibody, V domains shown) VH: QVQLQQPGAELVKPGASVKLSCKASGYTFTSYWMHWVKQRPGQGLEWIGEIDPSDSYTNYNQKFKGKATLTVDKSSSTAYMQLSSLTSEDSAVYYCARGGTGDFHYAMDYWGQGTSVTVSS VL: DILMTQSPSSMSVSLGDTVSITCHASQGISSNIGWLQQKPGKSFKGLIYHGTNLEDGVPSRFSGSGSGADYSLTISSLESEDFADYYCVQYVQFPYTFGGGTKLEIKR",HI test result,[3],6 n
same,HI test result,[5],> 8 n
same,HI test result,[6],6 n
same,HI test result,[7],> 8 n
same,HI test result,[9],> 8 n
same,HI test result,[36],> 8 n
same,HI test result,[11],6.5 n
same,HI test result,[12],5.5 n
same,HI test result,[13],4.5 n
same,HI test result,[14],6.5 n
same,HI test result,[16],6 n
same,HI test result,[17],5 n
same,HI test result,[22],7 n
same,HI test result,[37],7 n
same,HI test result,[23],2.5 n
same,HI test result,[24],6 n
same,HI test result,[25],5.5 n
same,HI test result,[27],5.5 n
same,HI test result,[29],2.5 n
same,HI test result,[31],8 n
same,HI test result,[32],7 n
same,HI test result,[33],2.5 n
same,HI test result,[34],6.5 n
"monoclonal antibody 8H5 (antibody, V domains shown) VH: QVQLQQSGAELMKPGASVKISCKATGYTFSNYWIEWIKQRPGHGLEWIGEILPGSDRTNYNGKFKGKATFTADTSSNTAHMQLSSLTSEDSAVYYCANRYDGYYFGLDYWGQGTSVAVSSA VL: EIVLTQSPAIMSASLGEKVTMSCRASSSVNFVYWYQQRSDASPKLLIYYSSNLAPGVPPRFSGSGSGNSYSLTISGLEGEDAATYYCQHFTSSPYTFGGGTNLEIKR",ELISA reading,[38],0.559
same,ELISA reading,[39],0.25
same,HI assay: positive number/total virus number (of 34 strains),[2],34
